From publication PMC9482650, “Quantitative fragmentomics allow affinity mapping of interactomes” (Nature Communications, 2022)

Target: T1, ARHGEF11, O15085
T1 sequence (O15085 42-136, limits assumed, looked up): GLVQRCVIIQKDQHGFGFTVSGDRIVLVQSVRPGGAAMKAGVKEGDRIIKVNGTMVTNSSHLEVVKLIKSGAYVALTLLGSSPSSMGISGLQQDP
Test: holdup assay
Set-up: key: below the threshold = too weak to quantify, mostly under pKd 3.1 to 4
Details: plain residues with an end cap or a label only (N-terminal biotin on a linker: ado-ado)

Binder	pKd
SKSNFGSEPL [KIF17, Q9P2E2]	below the threshold
VRNLPESEEL [MYOZ3, Q8TDC0]	3.83

Target: DLG1_1, Q12959
Test: holdup assay
Set-up: key: below the threshold = too weak to quantify, mostly under pKd 3.1 to 4
Details: plain residues with an end cap or a label only (N-terminal biotin on a linker: ado-ado)

Binder	pKd
SKSNFGSEPL [KIF17, Q9P2E2]	below the threshold
VRNLPESEEL [MYOZ3, Q8TDC0]	below the threshold

Target: DLG2_3, Q15700
Test: holdup assay
Set-up: key: below the threshold = too weak to quantify, mostly under pKd 3.1 to 4
Details: plain residues with an end cap or a label only (N-terminal biotin on a linker: ado-ado)

Binder	pKd
SKSNFGSEPL [KIF17, Q9P2E2]	below the threshold
VRNLPESEEL [MYOZ3, Q8TDC0]	below the threshold

Target: T2, DLG3_2, Q92796
T2 sequence (Q92796 221-321, limits assumed, looked up): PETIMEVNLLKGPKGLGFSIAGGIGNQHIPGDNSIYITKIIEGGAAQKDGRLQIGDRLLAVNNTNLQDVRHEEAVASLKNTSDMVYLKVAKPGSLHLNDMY
Test: holdup assay
Set-up: key: below the threshold = too weak to quantify, mostly under pKd 3.1 to 4
Details: plain residues with an end cap or a label only (N-terminal biotin on a linker: ado-ado)

Binder	pKd
SKSNFGSEPL [KIF17, Q9P2E2]	below the threshold
VRNLPESEEL [MYOZ3, Q8TDC0]	below the threshold

Target: DLG5_1, Q8TDM6
Sequence (Q8TDM6 617-713): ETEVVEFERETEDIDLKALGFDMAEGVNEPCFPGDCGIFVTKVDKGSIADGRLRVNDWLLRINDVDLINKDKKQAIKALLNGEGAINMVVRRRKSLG
Test: holdup assay
Set-up: key: below the threshold = too weak to quantify, mostly under pKd 3.1 to 4
Details: plain residues with an end cap or a label only (N-terminal biotin on a linker: ado-ado)

Binder	pKd
SKSNFGSEPL [KIF17, Q9P2E2]	below the threshold
VRNLPESEEL [MYOZ3, Q8TDC0]	below the threshold

Target: T3, FRMPD1, Q5SYB0
T3 sequence (Q5SYB0 52-145, limits assumed, looked up): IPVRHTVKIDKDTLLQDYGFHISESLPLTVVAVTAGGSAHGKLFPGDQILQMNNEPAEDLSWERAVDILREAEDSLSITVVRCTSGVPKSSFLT
Test: holdup assay
Set-up: key: below the threshold = too weak to quantify, mostly under pKd 3.1 to 4
Details: plain residues with an end cap or a label only (N-terminal biotin on a linker: ado-ado)

Binder	pKd
SKSNFGSEPL [KIF17, Q9P2E2]	below the threshold
VRNLPESEEL [MYOZ3, Q8TDC0]	below the threshold

Target: GIPC2, Q8TF65
Sequence (Q8TF65 112-203): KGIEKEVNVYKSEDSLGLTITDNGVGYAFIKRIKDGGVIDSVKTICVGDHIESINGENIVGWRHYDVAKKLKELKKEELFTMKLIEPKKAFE
Test: holdup assay
Set-up: key: below the threshold = too weak to quantify, mostly under pKd 3.1 to 4
Details: plain residues with an end cap or a label only (N-terminal biotin on a linker: ado-ado)

Binder	pKd
SKSNFGSEPL [KIF17, Q9P2E2]	below the threshold
VRNLPESEEL [MYOZ3, Q8TDC0]	below the threshold

Target: GORASP2, Q9H8Y8
Test: holdup assay
Set-up: key: below the threshold = too weak to quantify, mostly under pKd 3.1 to 4
Details: plain residues with an end cap or a label only (N-terminal biotin on a linker: ado-ado)

Binder	pKd
SKSNFGSEPL [KIF17, Q9P2E2]	below the threshold
VRNLPESEEL [MYOZ3, Q8TDC0]	below the threshold

Target: GRASP, Q7Z6J2
Sequence (Q7Z6J2 96-193): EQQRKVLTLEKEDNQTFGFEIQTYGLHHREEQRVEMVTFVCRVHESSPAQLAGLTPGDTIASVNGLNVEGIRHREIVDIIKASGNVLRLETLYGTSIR
Test: holdup assay
Set-up: key: below the threshold = too weak to quantify, mostly under pKd 3.1 to 4
Details: plain residues with an end cap or a label only (N-terminal biotin on a linker: ado-ado)

Binder	pKd
SKSNFGSEPL [KIF17, Q9P2E2]	below the threshold
VRNLPESEEL [MYOZ3, Q8TDC0]	3.74

Target: GRID2IP_1, A4D2P6
Sequence (A4D2P6 1-87): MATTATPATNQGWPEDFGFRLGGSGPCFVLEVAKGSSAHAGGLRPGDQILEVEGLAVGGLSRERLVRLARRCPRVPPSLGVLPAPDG
Test: holdup assay
Set-up: key: below the threshold = too weak to quantify, mostly under pKd 3.1 to 4
Details: plain residues with an end cap or a label only (N-terminal biotin on a linker: ado-ado)

Binder	pKd
SKSNFGSEPL [KIF17, Q9P2E2]	below the threshold
VRNLPESEEL [MYOZ3, Q8TDC0]	below the threshold

Target: Inadl_1, Q8NI35
Sequence (Q8NI35 113-229): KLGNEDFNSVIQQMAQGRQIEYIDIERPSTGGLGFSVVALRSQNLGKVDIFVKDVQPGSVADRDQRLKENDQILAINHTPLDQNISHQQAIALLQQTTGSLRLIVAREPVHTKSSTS
Test: holdup assay
Set-up: key: below the threshold = too weak to quantify, mostly under pKd 3.1 to 4
Details: plain residues with an end cap or a label only (N-terminal biotin on a linker: ado-ado)

Binder	pKd
SKSNFGSEPL [KIF17, Q9P2E2]	below the threshold
VRNLPESEEL [MYOZ3, Q8TDC0]	below the threshold

Target: Inadl_10, Q8NI35
Sequence (Q8NI35 1673-1763): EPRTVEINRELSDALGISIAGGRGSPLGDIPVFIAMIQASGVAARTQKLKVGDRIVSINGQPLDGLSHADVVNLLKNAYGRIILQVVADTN
Test: holdup assay
Set-up: key: below the threshold = too weak to quantify, mostly under pKd 3.1 to 4
Details: plain residues with an end cap or a label only (N-terminal biotin on a linker: ado-ado)

Binder	pKd
SKSNFGSEPL [KIF17, Q9P2E2]	below the threshold
VRNLPESEEL [MYOZ3, Q8TDC0]	below the threshold

Target: Inadl_5, Q8NI35
Sequence (Q8NI35 673-780): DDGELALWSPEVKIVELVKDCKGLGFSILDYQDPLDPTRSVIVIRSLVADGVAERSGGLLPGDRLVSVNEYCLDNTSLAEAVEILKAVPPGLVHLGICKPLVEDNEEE
Test: holdup assay
Set-up: key: below the threshold = too weak to quantify, mostly under pKd 3.1 to 4
Details: plain residues with an end cap or a label only (N-terminal biotin on a linker: ado-ado)

Binder	pKd
SKSNFGSEPL [KIF17, Q9P2E2]	below the threshold
VRNLPESEEL [MYOZ3, Q8TDC0]	below the threshold

Target: Inadl_9, Q8NI35
Sequence (Q8NI35 1530-1615): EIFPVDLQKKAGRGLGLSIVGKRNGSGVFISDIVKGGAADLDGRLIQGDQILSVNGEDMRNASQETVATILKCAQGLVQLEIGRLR
Test: holdup assay
Set-up: key: below the threshold = too weak to quantify, mostly under pKd 3.1 to 4
Details: plain residues with an end cap or a label only (N-terminal biotin on a linker: ado-ado)

Binder	pKd
SKSNFGSEPL [KIF17, Q9P2E2]	below the threshold
VRNLPESEEL [MYOZ3, Q8TDC0]	below the threshold

Target: T4, LIN7A, O14910
T4 sequence (O14910 103-200, limits assumed, looked up): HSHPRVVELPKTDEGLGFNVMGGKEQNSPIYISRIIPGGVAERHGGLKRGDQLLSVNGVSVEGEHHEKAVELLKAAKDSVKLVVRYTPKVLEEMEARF
Test: holdup assay
Set-up: key: below the threshold = too weak to quantify, mostly under pKd 3.1 to 4
Details: plain residues with an end cap or a label only (N-terminal biotin on a linker: ado-ado)

Binder	pKd
SKSNFGSEPL [KIF17, Q9P2E2]	below the threshold
VRNLPESEEL [MYOZ3, Q8TDC0]	below the threshold

Target: LNX1_1, Q8TBB1
Sequence (Q8TBB1 261-371): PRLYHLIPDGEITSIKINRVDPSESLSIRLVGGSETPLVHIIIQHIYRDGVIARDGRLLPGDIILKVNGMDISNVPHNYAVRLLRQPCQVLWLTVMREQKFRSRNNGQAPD
Test: holdup assay
Set-up: key: below the threshold = too weak to quantify, mostly under pKd 3.1 to 4
Details: plain residues with an end cap or a label only (N-terminal biotin on a linker: ado-ado)

Binder	pKd
SKSNFGSEPL [KIF17, Q9P2E2]	below the threshold
VRNLPESEEL [MYOZ3, Q8TDC0]	below the threshold

Target: MAGI2_2, Q86UL8
Sequence (Q86UL8 410-522): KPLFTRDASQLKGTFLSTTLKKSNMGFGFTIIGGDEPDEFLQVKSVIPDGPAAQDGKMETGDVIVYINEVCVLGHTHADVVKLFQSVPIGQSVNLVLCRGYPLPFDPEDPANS
Test: holdup assay
Set-up: key: below the threshold = too weak to quantify, mostly under pKd 3.1 to 4
Details: plain residues with an end cap or a label only (N-terminal biotin on a linker: ado-ado)

Binder	pKd
SKSNFGSEPL [KIF17, Q9P2E2]	below the threshold
VRNLPESEEL [MYOZ3, Q8TDC0]	below the threshold

Target: MAGI2_3, Q86UL8
Sequence (Q86UL8 600-682): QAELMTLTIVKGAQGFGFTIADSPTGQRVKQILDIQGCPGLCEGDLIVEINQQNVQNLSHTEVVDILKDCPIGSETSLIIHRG
Test: holdup assay
Set-up: key: below the threshold = too weak to quantify, mostly under pKd 3.1 to 4
Details: plain residues with an end cap or a label only (N-terminal biotin on a linker: ado-ado)

Binder	pKd
SKSNFGSEPL [KIF17, Q9P2E2]	below the threshold
VRNLPESEEL [MYOZ3, Q8TDC0]	below the threshold

Target: MAGI2_6, Q86UL8
Sequence (Q86UL8 1141-1229): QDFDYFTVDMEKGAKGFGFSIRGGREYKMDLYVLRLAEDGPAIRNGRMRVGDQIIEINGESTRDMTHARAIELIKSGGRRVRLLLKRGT
Test: holdup assay
Set-up: key: below the threshold = too weak to quantify, mostly under pKd 3.1 to 4
Details: plain residues with an end cap or a label only (N-terminal biotin on a linker: ado-ado)

Binder	pKd
SKSNFGSEPL [KIF17, Q9P2E2]	below the threshold
VRNLPESEEL [MYOZ3, Q8TDC0]	4.01

Target: MAST2, Q6P0Q8
Sequence (Q6P0Q8 1099-1202): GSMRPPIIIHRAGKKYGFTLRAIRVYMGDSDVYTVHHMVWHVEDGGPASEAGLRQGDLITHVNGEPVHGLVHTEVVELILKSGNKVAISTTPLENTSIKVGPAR
Test: holdup assay
Set-up: key: below the threshold = too weak to quantify, mostly under pKd 3.1 to 4
Details: plain residues with an end cap or a label only (N-terminal biotin on a linker: ado-ado)

Binder	pKd
SKSNFGSEPL [KIF17, Q9P2E2]	3.93
VRNLPESEEL [MYOZ3, Q8TDC0]	4.74

Target: T5, MPDZ_12, O75970
T5 sequence (O75970 1857-1958, limits assumed, looked up): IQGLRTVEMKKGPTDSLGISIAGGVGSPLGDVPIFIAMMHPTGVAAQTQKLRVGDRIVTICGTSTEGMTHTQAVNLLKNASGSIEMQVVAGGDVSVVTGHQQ
Test: holdup assay
Set-up: key: below the threshold = too weak to quantify, mostly under pKd 3.1 to 4
Details: plain residues with an end cap or a label only (N-terminal biotin on a linker: ado-ado)

Binder	pKd
SKSNFGSEPL [KIF17, Q9P2E2]	below the threshold
VRNLPESEEL [MYOZ3, Q8TDC0]	below the threshold

Target: NHERF2_2, Q15599
Sequence (Q15599 142-238): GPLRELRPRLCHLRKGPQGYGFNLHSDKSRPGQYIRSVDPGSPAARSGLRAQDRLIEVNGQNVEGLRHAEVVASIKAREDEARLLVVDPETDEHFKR
Test: holdup assay
Set-up: key: below the threshold = too weak to quantify, mostly under pKd 3.1 to 4
Details: plain residues with an end cap or a label only (N-terminal biotin on a linker: ado-ado)

Binder	pKd
SKSNFGSEPL [KIF17, Q9P2E2]	below the threshold
VRNLPESEEL [MYOZ3, Q8TDC0]	3.64

Target: NHERF4_4, Q86UT5
Sequence (Q86UT5 464-550): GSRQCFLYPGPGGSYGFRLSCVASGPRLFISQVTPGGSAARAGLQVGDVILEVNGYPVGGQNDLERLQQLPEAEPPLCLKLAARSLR
Test: holdup assay
Set-up: key: below the threshold = too weak to quantify, mostly under pKd 3.1 to 4
Details: plain residues with an end cap or a label only (N-terminal biotin on a linker: ado-ado)

Binder	pKd
SKSNFGSEPL [KIF17, Q9P2E2]	below the threshold
VRNLPESEEL [MYOZ3, Q8TDC0]	3.85

Target: T6, PCLO, Q9Y6V0
T6 sequence (Q9Y6V0 4491-4600, limits assumed, looked up): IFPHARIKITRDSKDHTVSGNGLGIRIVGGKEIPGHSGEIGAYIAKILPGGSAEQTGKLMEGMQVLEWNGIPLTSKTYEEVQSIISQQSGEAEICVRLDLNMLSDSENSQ
Test: holdup assay
Set-up: key: below the threshold = too weak to quantify, mostly under pKd 3.1 to 4
Details: plain residues with an end cap or a label only (N-terminal biotin on a linker: ado-ado)

Binder	pKd
SKSNFGSEPL [KIF17, Q9P2E2]	below the threshold
VRNLPESEEL [MYOZ3, Q8TDC0]	below the threshold

Target: PDZRN4_1, Q6ZMN7
Sequence (Q6ZMN7 213-318): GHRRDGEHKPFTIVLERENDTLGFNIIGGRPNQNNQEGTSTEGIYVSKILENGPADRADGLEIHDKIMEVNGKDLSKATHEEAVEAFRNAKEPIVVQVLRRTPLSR
Test: holdup assay
Set-up: key: below the threshold = too weak to quantify, mostly under pKd 3.1 to 4
Details: plain residues with an end cap or a label only (N-terminal biotin on a linker: ado-ado)

Binder	pKd
SKSNFGSEPL [KIF17, Q9P2E2]	below the threshold
VRNLPESEEL [MYOZ3, Q8TDC0]	below the threshold

Target: T7, PTPN13_1, Q12923
T7 sequence (Q12923 1088-1188, limits assumed, looked up): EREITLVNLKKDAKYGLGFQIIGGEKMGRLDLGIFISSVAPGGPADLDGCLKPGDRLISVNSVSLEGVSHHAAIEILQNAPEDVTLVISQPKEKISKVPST
Test: holdup assay
Set-up: key: below the threshold = too weak to quantify, mostly under pKd 3.1 to 4
Details: plain residues with an end cap or a label only (N-terminal biotin on a linker: ado-ado)

Binder	pKd
SKSNFGSEPL [KIF17, Q9P2E2]	below the threshold
VRNLPESEEL [MYOZ3, Q8TDC0]	below the threshold

Target: PTPN3, P26045
Sequence (P26045 505-587): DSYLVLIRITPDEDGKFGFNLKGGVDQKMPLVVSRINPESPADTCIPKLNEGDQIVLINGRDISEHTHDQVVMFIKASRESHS
Test: holdup assay
Set-up: key: below the threshold = too weak to quantify, mostly under pKd 3.1 to 4
Details: plain residues with an end cap or a label only (N-terminal biotin on a linker: ado-ado)

Binder	pKd
SKSNFGSEPL [KIF17, Q9P2E2]	3.95
VRNLPESEEL [MYOZ3, Q8TDC0]	3.91

Target: T8, SHANK1, Q9Y566
T8 sequence (Q9Y566 658-767, limits assumed, looked up): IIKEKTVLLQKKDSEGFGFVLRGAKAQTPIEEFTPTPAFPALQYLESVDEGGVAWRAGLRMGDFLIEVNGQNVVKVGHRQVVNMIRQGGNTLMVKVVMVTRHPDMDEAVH
Test: holdup assay
Set-up: key: below the threshold = too weak to quantify, mostly under pKd 3.1 to 4
Details: plain residues with an end cap or a label only (N-terminal biotin on a linker: ado-ado)

Binder	pKd
SKSNFGSEPL [KIF17, Q9P2E2]	below the threshold
VRNLPESEEL [MYOZ3, Q8TDC0]	below the threshold

Target: T9, TX1BP3, O14907
T9 sequence (O14907 10-122, limits assumed, looked up): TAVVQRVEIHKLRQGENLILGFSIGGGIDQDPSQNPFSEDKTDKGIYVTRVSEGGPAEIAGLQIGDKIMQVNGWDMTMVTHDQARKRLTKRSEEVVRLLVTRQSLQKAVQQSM
Test: holdup assay
Set-up: key: below the threshold = too weak to quantify, mostly under pKd 3.1 to 4
Details: plain residues with an end cap or a label only (N-terminal biotin on a linker: ado-ado)

Binder	pKd
SKSNFGSEPL [KIF17, Q9P2E2]	5.05
VRNLPESEEL [MYOZ3, Q8TDC0]	below the threshold
